One test addresses T1, murine Ang-2, His-tagged (mouse, UniProt O35608 19-496).
T1 construct: also called mAng-2; mAng-2-His
T1 sequence (looked up): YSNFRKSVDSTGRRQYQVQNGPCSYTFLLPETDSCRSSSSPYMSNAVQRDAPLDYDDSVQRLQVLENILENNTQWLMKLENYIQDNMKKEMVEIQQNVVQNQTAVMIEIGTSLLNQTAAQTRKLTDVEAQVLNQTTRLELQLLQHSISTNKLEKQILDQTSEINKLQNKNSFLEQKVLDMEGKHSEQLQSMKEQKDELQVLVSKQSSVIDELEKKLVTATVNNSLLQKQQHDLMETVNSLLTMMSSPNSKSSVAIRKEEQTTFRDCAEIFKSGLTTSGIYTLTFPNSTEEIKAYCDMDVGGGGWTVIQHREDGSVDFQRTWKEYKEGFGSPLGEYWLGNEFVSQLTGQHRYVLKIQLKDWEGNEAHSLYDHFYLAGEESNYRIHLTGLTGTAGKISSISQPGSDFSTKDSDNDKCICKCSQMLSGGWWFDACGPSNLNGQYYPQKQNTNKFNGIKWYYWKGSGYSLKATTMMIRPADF
Nature of the test: Neutralization ELISA: antibody titrated against 1 nM Tie2-Fc on plate-bound mAng-2.

In another test the target is T2, human angiopoietin-1 (human, UniProt Q15389 20-498).
T2 construct: also called hAng-1; Human Ang1
T2 sequence (looked up): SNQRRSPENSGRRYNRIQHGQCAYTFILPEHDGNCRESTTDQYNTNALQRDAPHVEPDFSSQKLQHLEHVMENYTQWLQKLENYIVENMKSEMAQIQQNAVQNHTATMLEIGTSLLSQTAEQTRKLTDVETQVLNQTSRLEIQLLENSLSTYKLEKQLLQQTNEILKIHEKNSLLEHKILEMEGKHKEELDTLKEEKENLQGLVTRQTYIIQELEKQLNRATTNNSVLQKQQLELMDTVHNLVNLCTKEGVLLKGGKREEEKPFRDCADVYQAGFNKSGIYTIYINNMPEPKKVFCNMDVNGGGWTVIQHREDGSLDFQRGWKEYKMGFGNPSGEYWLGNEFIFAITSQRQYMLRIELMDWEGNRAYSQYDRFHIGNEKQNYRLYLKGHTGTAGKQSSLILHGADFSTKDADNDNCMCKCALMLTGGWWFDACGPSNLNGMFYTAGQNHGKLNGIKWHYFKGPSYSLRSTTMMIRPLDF
Nature of the test: Neutralization ELISA: antibody titrated against 1 nM Tie2-Fc on plate-bound hAng-1. On the technique in general: ELISA stands for enzyme-linked immunosorbent assay.

The target of a further test is T3, human angiopoietin-2 (human, UniProt O15123 19-496, limits assumed).
T3 construct: also called hAng-2; huAng-2
T3 sequence (looked up): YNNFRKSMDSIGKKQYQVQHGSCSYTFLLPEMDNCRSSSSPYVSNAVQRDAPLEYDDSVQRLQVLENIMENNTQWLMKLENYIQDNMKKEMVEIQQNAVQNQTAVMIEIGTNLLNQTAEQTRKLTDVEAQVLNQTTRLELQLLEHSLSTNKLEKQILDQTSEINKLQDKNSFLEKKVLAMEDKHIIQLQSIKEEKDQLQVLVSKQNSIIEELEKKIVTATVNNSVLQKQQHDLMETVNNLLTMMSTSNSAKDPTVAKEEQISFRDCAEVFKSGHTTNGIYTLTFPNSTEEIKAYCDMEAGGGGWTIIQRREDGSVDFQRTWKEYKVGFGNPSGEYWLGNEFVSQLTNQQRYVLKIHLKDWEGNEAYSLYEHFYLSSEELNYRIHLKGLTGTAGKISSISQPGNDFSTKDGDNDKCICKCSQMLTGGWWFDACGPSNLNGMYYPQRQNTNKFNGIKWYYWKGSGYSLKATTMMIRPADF
Nature of the test: Neutralization ELISA: antibody titrated against 1 nM Tie2-Fc on plate-bound hAng-2. How it is done:
Microtiter plates to which human Ang-2 polypeptide was bound were prepared as described for the Affinity ELISA. […] Next, about 100 microliters per well of goat anti-mouse-IgG-HRP (Pierce Chemical CO., catalog #31432) was added at a dilution of 1:10,000 in PBS containing about 1 percent BSA. Plates were incubated at room temperature for about 1 hour, after which they were washed five times with PBS containing about 0.1 percent Tween-20. About 100 microliters per well of TMB substrate (described above) was then added and color was allowed to develop. Absorbance was then read in a spectrophotomer at 370 nm.
Seventeen of the antibodies and a negative control IgG1 (referred to as RDB1) were tested using affinity and neutralization ELISA (as described in Example 3 above) as well as the BIAcore neutralization assay to determine their affinity, neutralization, and specificity capabilities.

B1: Ab 544 (antibody, human IgG1, lambda, V domains shown)
VH: QVQLVQSGAEVKKPGASVKVSCKASGGTFSSYAISWVRQAPGQGLEWMGGIIPIFGTANYAQKFQGRVTITADESTSTAYMELSSLRSEDTAVYYCARFESGYWGDAFDIWGQGTMVTVSS
VL: SYELTQPPSVSVSPGQTARITCSGDALPKQYAYWYQQKPGQAPVLVIYKDSERPSGIPERFSGSSSGTTVTLTISGVQAEDEADYYCQSADSSHVVFGGGTKLTVLG
notes: also called clone 544
Turning to B1, the concentration for half-maximal inhibition (IC50) (as a rule, the concentration needed to halve the response being measured) amounted to 1.82 nM with murine Ang-2, His-tagged; 23.3 nM in the test with human angiopoietin-1; 0.97 nM with human angiopoietin-2.

B2: Ab 535 (antibody, human IgG1, lambda, V domains shown)
VH: QVQLVQSGAEVKKPGSSVKVSCKASGGTFSSYAISWVRQAPGQGLEWMGGIIPIFGTANYAQKFQGRVTITADKSTSTAYMELSSLRSEDTAVYYCAAFSPFTETDAFDIWGQGTMVTVSS
VL: QSVLTQPPSVSAAPGQKVTISCSGSNSNIGNNFVSWYQQLPGTAPKLLVYDNNKRPSGIPDRFSGSKSGTSATLGITGLQTGDEADYYCGTWDSSLSAAEVVFGGGTKLTVLG
notes: Fully human IgG1 lambda
As to B2, the IC50 with murine Ang-2, His-tagged is 2.45 nM; with human angiopoietin-2, 2.81 nM.

B3: Ab G1D4 (antibody, human IgG1, lambda, V domains shown)
VH: QVQLVQSGAEVKKPGSSVKVSCKASGGTFSSHAISWVRQAPGQGLEWMGRIIPILGIANYAQKFQGRVTITADESTSTAYMELSSLRSEDTAVYYCATSRLEWLLYLDYWGQGTLVTVSS
VL: NFMLTQPHSVSESPGKTVIIPCTRSSGSIASNYVQWYQKRPGSAPSIVIYEDKQRPSGVPDRFSGSIDSSSNSASLTISGLKTEDEADYYCQSYNSRGVMFGGGTKLTVLG
notes: Fully human IgG1 lambda
On to B3, for which the 50% inhibitory concentration (IC50) was 0.6 nM in the test with murine Ang-2, His-tagged; 69.5 nM with human angiopoietin-1; 1.39 nM in the test with human angiopoietin-2.

B4: Ab 553 (antibody, human IgG1, kappa, V domains shown)
VH: QVQLVQSGAEVKKPGASVKVSCKASGYTFTSYAMHWVRQAPGQRLEWMGWINAGNGNTKYSQKFQGRVTITRDTSASTAYMELSGLRSEDTAVYYCARGVDDYGGNSWAFDIWGQGTMVTVSS
VL: DIVMTQSPLSLPVTPGEPASISCRSSQSLLHSNGYNYLDWYLQKPGQSPQLLIYLGSNRASGVPDRFTGSGSATDFTLRISRVEAEDVGVYYCMQALQTPLTFGGGTKVEIKR
notes: Fully human IgG1 kappa
Turning to B4, the IC50 with murine Ang-2, His-tagged was found to be 1.41 nM; with human angiopoietin-2 it was 1.47 nM.

B5: Ab 543 (antibody, human IgG1, kappa, V domains shown)
VH: QVQLVQSGAEVKKPGSSVKVSCKASGGTFSSYAISWVRQAPGQGLEWMGRIIPILGIANYAQKFQGRVTITADKSTSTAYMELSSLRSEDTAVYYCARPYYDFWSGPGGMDVWGQGTTVTVSS
VL: not shown
notes: Fully human IgG1 kappa
Regarding B5, the half-maximal inhibitory concentration (IC50) amounted to 0.24 nM with murine Ang-2, His-tagged and 0.51 nM in the test with human angiopoietin-2.

B6: Ab 526 (antibody, human IgG1, kappa, V domains shown)
VH: EVQLVESGGGVVQPGRSLRLSCAASGFTFSSYGMHWVRQAPGKGLEWVSAISGSGGSTYYADSVKGRFTISRDNAKNSLYLQMNSLRAEDTAVYYCARDLLDYDILTGPYAYWGQGTLVTVSS
VL: not shown
notes: Fully human IgG1 kappa
Regarding B6, the IC50 was 0.27 nM in the test with murine Ang-2, His-tagged; 243 nM with human angiopoietin-1; 1.83 nM with human angiopoietin-2.

B7: Ab 533 (antibody, human IgG1, kappa, V domains shown)
VH: EVQLVQSGGGVVQPGRSLRLSCAASGFTFSSYGMHWVRQAPGKGLEWVSYISSSGSTIYYADSVKGRFTISRDNAKNSLYLQMNSLRAEDTAVYYCARDLLDYDILTGYGYWGQGTLVTVSS
VL: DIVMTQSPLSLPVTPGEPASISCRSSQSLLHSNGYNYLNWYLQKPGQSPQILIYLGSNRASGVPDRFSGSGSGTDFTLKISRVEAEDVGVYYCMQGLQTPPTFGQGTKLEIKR
notes: also called clone 533
With B7, the IC50 in the test with murine Ang-2, His-tagged came out at 0.08 nM; with human angiopoietin-2 it was 0.3 nM.

B8: Ab 537 (antibody, human IgG1, V domains shown)
VH: QVQLVQSGAEVKKPGSSVKVSCKASGGTFSSYAISWVRQAPGQGLEWMGGIIPILGIANYAQKFQGRVTITADKSTSTAYMELSGLGSEDTAVYYCARGSSDAAVAGMWGQGTLVTVSS
VL: QSVLTQPPSVSAAPGQDVTISCSGNNSNIGNNYVSWYQQVPGTAPKLLVYDNHKRPSGISDRFSGSKSDTSATLDITGLQPGDEADYYCGTWDTSLSANWVFGGGTKLTVLR
notes: Fully human IgG1 lambda; also called clone 537
With B8, the IC50 with murine Ang-2, His-tagged came out at 0.62 nM; in the test with human angiopoietin-2 it was 0.56 nM.

B9: Ab 528 (antibody, human IgG1, lambda, V domains shown)
VH: QVQLVQSGAEVKKPGSSVKVSCKASGGTFSSYAISWVRQAPGQGLEWMGGIIPIFGTANYAQKFQGRVTITADESTSTAYMELSSLRSEDTAVYYCARGVVGDFDWLSFFDYWGQGTLVTVSS
VL: SYELTQPPSVSVSPGQTASITCSGDKLGYTYTSWFQQKPGQSPVLVIFQDFKRPSGIPERFSGSNSGNTATLTISGTQAMDEADYYCQAWDSTTAVVFGTGTKVTVLG
notes: Fully human IgG1 lambda
As for B9, the IC50 amounted to 0.73 nM in the test with murine Ang-2, His-tagged and 1.37 nM in the test with human angiopoietin-2.

B10: Ab 555 (antibody, human IgG1, kappa, V domains shown)
VH: QVQLQESGGGVVQPGRSLRLSCAASGFTFSSYAMHWVRQAPGKGLEWVAVISYDGSNKYYADSVKGRFTISRDNSKNTLYLQMNSLRAEDTAVYYCARSASDHYYDSSGYYSDAFDIWGQGTMVTVSS
VL: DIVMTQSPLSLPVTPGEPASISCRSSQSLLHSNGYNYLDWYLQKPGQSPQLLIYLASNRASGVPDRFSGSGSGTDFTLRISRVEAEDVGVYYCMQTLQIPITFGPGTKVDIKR
notes: Fully human IgG1 kappa
Consider B10, for which the half-inhibitory concentration (IC50) with murine Ang-2, His-tagged amounted to 1.76 nM; in the test with human angiopoietin-2 it was 2.21 nM.

B11: Ab 540 (antibody, human IgG1, lambda, V domains shown)
VH: QVQLVQSGAEVKKPGSSVKVSCKASGGTFSSYAISWVRQAPGQGLEWMGGIIPILGIANYAQKFQGRVTITADKFTSTAYMELSSLGSEDTAVYYCARAVPGTEDAFDIWGQGTMVTVSS
VL: QSVLTQPPSVSAAPGQKVTISCSGSSSNIGANYVSWYQQLPGTAPKLLIYNNNKRPSGIPDRFSGSKSDTSATLGITGLQTGDEADYYCGAWDSSLSASWVFGGGTKLTVLG
notes: Fully human IgG1 lambda
With B11, the IC50 with murine Ang-2, His-tagged is 1.53 nM; in the test with human angiopoietin-2, 0.7 nM.

B12: Ab 531 (antibody, human IgG1, lambda, V domains shown)
VH: EVQLVQSGAEVKKPGSSVKVSCKASGGTFSSYAISWVRQAPGQGLEWMGGIIPILGIANYAQKFQGRVTITADKSTNTAYMELTSLTSDDTAVYYCARDREDTAMVFNYWGQGTLVTVSS
VL: QSVLTQPPSVSAAPGQKVTVSCSGSSSNIGNNYVSWYQQLPGTAPKLLIYDNNKRPSGIPDRFSGSKSGTSATLGITGLQTGDEADYYCGTWDSSLSAFWVFGGGTKLTVLG
notes: Fully human IgG1 lambda
With B12, the IC50 stood at 1.67 nM with murine Ang-2, His-tagged and 2.15 nM with human angiopoietin-2.

Values taken from US20130142799A1 (Amgen, published 2013).
